{"source": "patent US20230192903A1", "about": "(published 2023)", "key": {"[1]": {"molecular_target": "Human CLDN18.2 (human)", "experiment": "cell-based or functional assay"}, "[2]": {"molecular_target": "T1, Human CLDN18.2 (human)", "T1 construct": "the cell line is named under assay; also called hCLDN18.2; human CLDN18.2 antigen", "experiment": "flow cytometry, NUGC4-hCLDN18.2 cells", "experimental": "(§1) NUGC4 and NUGC4-hCLDN18.2 cells were cultured, digested with pancreatin and centrifuged to collect cells. The cells were collected and resuspended in buffer (PBS+1% FBS) at 1×10⁴ cells/well in a 96-well plate at 100 μL per well. Then the mixture was centrifuged at 350×g for 5 min, and the supernatant was removed."}, "[3]": {"molecular_target": "T2, Human CLDN18.1 (human, UniProt P56856 1-261)", "T2 construct": "also called hCLDN18.1", "experiment": "flow cytometry, 293T-hCLDN18.1 cells"}, "[4]": {"molecular_target": "T1, Human CLDN18.2", "experiment": "flow cytometry, NUGC4 cells (endogenous CLDN18.2)"}, "[5]": {"molecular_target": "T3, human CD3 antigen (human, UniProt P07766 23-126)", "T3 construct": "also called Human CD3ϵ", "experiment": "SPR (Biacore T200), human CD3 antigen on CM5 chip", "experimental": "(§2) After the detection was completed, data fitting was carried out on the result pattern by adopting Biacore T200 Evaluation Software in a 1:1 binding fitting mode to obtain an equilibrium dissociation constant (KD)."}, "[6]": {"molecular_target": "T4, murine CD3 antigen (murine, UniProt P22646 22-108, limits assumed)", "T4 construct": "also called Mouse CD3ϵ", "T4 sequence (P22646 22-108 limits assumed)": "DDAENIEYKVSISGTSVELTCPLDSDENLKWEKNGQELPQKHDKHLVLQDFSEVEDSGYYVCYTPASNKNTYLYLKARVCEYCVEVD", "experiment": "SPR (Biacore T200), murine CD3 antigen on CM5 chip, 1:1 fit", "experimental": "as §2"}, "[7]": {"molecular_target": "T1, Human CLDN18.2", "experiment": "flow cytometry, NUGC4-hCLDN18.2 cells", "remark": "listed apart in the source", "experimental": "as §1"}, "[8]": {"molecular_target": "T1, Human CLDN18.2", "experiment": "flow cytometry, NUGC4 cells (endogenous CLDN18.2)", "remark": "listed apart in the source", "experimental": "as §1"}, "[9]": {"molecular_target": "T3, human CD3 antigen", "experiment": "detection method the same as in Examples 2-8 (Biacore)"}}}
{"binder": "bispecific antibody Y17 (bispecific antibody, human IgG1, kappa, YBODY structure: anti-CLDN18.2 Fab arm (1E9.2) and second monomer anti-CD3 scFv (Di6-2)-Fc) light: not shown heavy: EVQLVESGGGLVKPGGSLRLSCAASGFSFSNSAMSWVRQAPGKGLEWVSTISSGDSYTYYADSVKGRFTISRDNAKNSLYLQMNSLRAEDTAVYYCARQGYGNALDYWGQGTLVTVSSASTKGPSVFPLAPSSKSTSGGTAALGCLVKDYFPEPVTVSWNSGALTSGVHTFPAVLQSSGLYSLSSVVTVPSSSLGTQTYICNVNHKPSNTKVDKKVEPKSCDKTHTCPPCPAPPVAGPSVFLFPPKPKDTLMISRTPEVTCVVVDVSHEAPEVQFNWYVDGVEVHNAKTKPREEQFNSTFRVVSVLTVVHQDWLNGKEYKCKVSNKGLPAPIEKTISKTKGQPREPQVYTLPPCRDELTKNQVSLWCLVKGFYPSDIAVEWESNGQPENNYKTTPPVLDSDGSFFLYSKLTVDKSRWQQGNVFSCSVMHEALHNHYTQKSLSLSPGK QVQLVESGGGVVQPGRSLRLSCAASGFTFSTYAMNWVRQAPGKGLEWVGRIRSKYNNYATYYADSVKDRFTISRDDSKNTLYLQMNSLRGEDTAVYYCARHGNFGNSYVSWFAYWGQGTLVTVSSGGGGSGGGGSGGGGSQTVVTQEPSLTVSPGGTVTLTCRSSTGAVTTSNYANWVQQKPGQAPRGLIGGTNKRAPGVPARFSGSLLGGKAALTLSGVQPEDEAEYTCALWYSNLWVFGGGTKVEIKGRGRGSDKTHTCPPCPAPPVAGPSVFLFPPKPKDTLMISRTPEVTCVVVDVSHEAPEVQFNWYVDGVEVHNAKTKPREEQFNSTFRVVSVLTVVHQDWLNGKEYKCKVSNKGLPAPIEKTISKTKGQPREPQVCTLPPSRDELTKNQVSLSCAVKGFYPSDIAVEWESNGQPENNYKTTPPVLDSDGSFFLVSKLTVDKSRWQQGNVFSCSVMHEALHNHYTQKSLSLSPGK", "values": [{"measurement": "EC50 value for killing effect on NUGC4-hCLDN18.2 cells", "setting": "[1]", "value": "< 0.01", "unit": "nM"}, {"measurement": "EC50 value for killing effect on NUGC4 cells", "setting": "[1]", "value": "< 0.01", "unit": "nM"}, {"measurement": "EC50", "setting": "[2]", "value": "< 50", "unit": "nM"}, {"measurement": "binding result", "setting": "[3]", "value": "no binding"}, {"measurement": "EC50", "setting": "[4]", "value": "< 100", "unit": "nM"}, {"measurement": "Kd", "setting": "[5]", "value": "< 15", "unit": "nM"}]}
{"binder": "bispecific antibody SY1 (bispecific antibody, human IgG1, kappa, YBODY structure: anti-CLDN18.2 Fab arm (2C6.9) and single chain anti-mouse CD3 scFv (2C11)-Fc) light: not shown heavy: QVQLQESGPGLVKPSETLSLTCTVSGFSLTRYGVSWIRQPPGKGLEWIGVIWGEGNTNYNPSLKSRVTISKDSSKSQVSLKLSSVTAADTAVYYCARVNFGNALDYWGQGTLVTVSSASTKGPSVFPLAPSSKSTSGGTAALGCLVKDYFPEPVTVSWNSGALTSGVHTFPAVLQSSGLYSLSSVVTVPSSSLGTQTYICNVNHKPSNTKVDKKVEPKSCDKTHTCPPCPAPPVAGPSVFLFPPKPKDTLMISRTPEVTCVVVDVSHEAPEVQFNWYVDGVEVHNAKTKPREEQFNSTFRVVSVLTVVHQDWLNGKEYKCKVSNKGLPAPIEKTISKTKGQPREPQVYTLPPCRDELTKNQVSLWCLVKGFYPSDIAVEWESNGQPENNYKTTPPVLDSDGSFFLYSKLTVDKSRWQQGNVFSCSVMHEALHNHYTQKSLSLSPGK EVQLVESGGGLVQPGKSLKLSCEASGFTFSGYGMHWVRQAPGRGLESVAYITSSSINIKYADAVKGRFTVSRDNAKNLLFLQMNILKSEDTAMYYCARFDWDKNYWGQGTMVTVSSGGGGSGGGGSGGGGSDIQMTQSPSSLPASLGDRVTINCQASQDISNYLNWYQQKPGKAPKLLIYYTNKLADGVPSRFSGSGSGRDSSFTISSLESEDIGSYYCQQYYNYPWTFGPGTKLEIKGRGRGSDKTHTCPPCPAPPVAGPSVFLFPPKPKDTLMISRTPEVTCVVVDVSHEAPEVQFNWYVDGVEVHNAKTKPREEQFNSTFRVVSVLTVVHQDWLNGKEYKCKVSNKGLPAPIEKTISKTKGQPREPQVCTLPPSRDELTKNQVSLSCAVKGFYPSDIAVEWESNGQPENNYKTTPPVLDSDGSFFLVSKLTVDKSRWQQGNVFSCSVMHEALHNHYTQKSLSLSPGK", "values": [{"measurement": "Kd", "setting": "[6]", "value": 79.3, "unit": "nM"}, {"measurement": "EC50", "setting": "[7]", "value": 125, "unit": "nM"}, {"measurement": "EC50", "setting": "[8]", "value": 304, "unit": "nM"}]}
{"binder": "bispecific antibody SCS1 (bispecific antibody, human IgG1, kappa, CSBODY structure: two 2C6.9 Fab arms; second heavy chain (first heavy entry) and first heavy chain with anti-mouse CD3 scFv (2C11) between CH1 and Fc2; also called SCSI) light: not shown heavy 1: QVQLQESGPGLVKPSETLSLTCTVSGFSLTRYGVSWIRQPPGKGLEWIGVIWGEGNTNYNPSLKSRVTISKDSSKSQVSLKLSSVTAADTAVYYCARVNFGNALDYWGQGTLVTVSSASTKGPSVFPLAPSSKSTSGGTAALGCLVKDYFPEPVTVSWNSGALTSGVHTFPAVLQSSGLYSLSSVVTVPSSSLGTQTYICNVNHKPSNTKVDKKVEPKSCDKTHTCPPCPAPPVAGPSVFLFPPKPKDTLMISRTPEVTCVVVDVSHEAPEVQFNWYVDGVEVHNAKTKPREEQFNSTFRVVSVLTVVHQDWLNGKEYKCKVSNKGLPAPIEKTISKTKGQPREPQVYTLPPCRDELTKNQVSLWCLVKGFYPSDIAVEWESNGQPENNYKTTPPVLDSDGSFFLYSKLTVDKSRWQQGNVFSCSVMHEALHNHYTQKSLSLSPGK heavy 2: QVQLQESGPGLVKPSETLSLTCTVSGFSLTRYGVSWIRQPPGKGLEWIGVIWGEGNTNYNPSLKSRVTISKDSSKSQVSLKLSSVTAADTAVYYCARVNFGNALDYWGQGTLVTVSSASTKGPSVFPLAPSSKSTSGGTAALGCLVKDYFPEPVTVSWNSGALTSGVHTFPAVLQSSGLYSLSSVVTVPSSSLGTQTYICNVNHKPSNTKVDKKVEPKSCDKTHTAPAPAPAPAPAPAPAPEVQLVESGGGLVQPGKSLKLSCEASGFTFSGYGMHWVRQAPGRGLESVAYITSSSINIKYADAVKGRFTVSRDNAKNLLFLQMNILKSEDTAMYYCARFDWDKNYWGQGTMVTVSSGGGGSGGGGSGGGGSDIQMTQSPSSLPASLGDRVTINCQASQDISNYLNWYQQKPGKAPKLLIYYTNKLADGVPSRFSGSGSGRDSSFTISSLESEDIGSYYCQQYYNYPWTFGPGTKLEIKGGGGSDKTHTCPPCPAPPVAGPSVFLFPPKPKDTLMISRTPEVTCVVVDVSHEAPEVQFNWYVDGVEVHNAKTKPREEQFNSTFRVVSVLTVVHQDWLNGKEYKCKVSNKGLPAPIEKTISKTKGQPREPQVCTLPPSRDELTKNQVSLSCAVKGFYPSDIAVEWESNGQPENNYKTTPPVLDSDGSFFLVSKLTVDKSRWQQGNVFSCSVMHEALHNHYTQKSLSLSPGK", "values": [{"measurement": "Kd", "setting": "[6]", "value": 94.1, "unit": "nM"}, {"measurement": "EC50", "setting": "[7]", "value": 25.4, "unit": "nM"}, {"measurement": "EC50", "setting": "[8]", "value": 29.1, "unit": "nM"}]}
{"binder": "Bispecific antibody molecule YCS4 (bispecific antibody, human IgG1, kappa, CS4 with the first heavy/light chain variable regions replaced by 1E9.2; order of chains: first light, second light, second heavy, first heavy) light 1: not shown light 2: not shown heavy 1: QVQLQESGPGLVKPSETLSLTCTVSGFSLTRYGVSWIRQPPGKGLEWIGVIWGEGNTNYNPSLKSRVTISKDSSKSQVSLKLSSVTAADTAVYYCARVNFGNALDYWGQGTLVTVSSASTKGPSVFPLAPSSKSTSGGTAALGCLVKDYFPEPVTVSWNSGALTSGVHTFPAVLQSSGLYSLSSVVTVPSSSLGTQTYICNVNHKPSNTKVDKKVEPKSCDKTHTCPPCPAPPVAGPSVFLFPPKPKDTLMISRTPEVTCVVVDVSHEAPEVQFNWYVDGVEVHNAKTKPREEQFNSTFRVVSVLTVVHQDWLNGKEYKCKVSNKGLPAPIEKTISKTKGQPREPQVYTLPPCRDELTKNQVSLWCLVKGFYPSDIAVEWESNGQPENNYKTTPPVLDSDGSFFLYSKLTVDKSRWQQGNVFSCSVMHEALHNHYTQKSLSLSPGK heavy 2: EVQLVESGGGLVKPGGSLRLSCAASGFSFSNSAMSWVRQAPGKGLEWVSTISSGDSYTYYADSVKGRFTISRDNAKNSLYLQMNSLRAEDTAVYYCARQGYGNALDYWGQGTLVTVSSASTKGPSVFPLAPSSKSTSGGTAALGCLVKDYFPEPVTVSWNSGALTSGVHTFPAVLQSSGLYSLSSVVTVPSSSLGTQTYICNVNHKPSNTKVDKKVEPKSCDKTHTAPAPAPAPAPAPAPAPQVQLVESGGGVVQPGRSLRLSCAASGFTFSTYAMNWVRQAPGKGLEWVARIRSKYNNYATYYADSVKDRFTISRDDSKNTLYLQMNSLRAEDTAVYYCARHGNFGNSYVSWFAYWGQGTLVTVSSGGGGSGGGGSGGGGSQTVVTQEPSLTVSPGGTVTLTCRSSTGAVTTSNYANWVQQKPGQAPRGLIGGTNKRAPGVPARFSGSLLGGKAALTLSGVQPEDEAEYYCALWYSNLWVFGGGTKVEIKGGGGSDKTHTCPPCPAPPVAGPSVFLFPPKPKDTLMISRTPEVTCVVVDVSHEAPEVQFNWYVDGVEVHNAKTKPREEQFNSTFRVVSVLTVVHQDWLNGKEYKCKVSNKGLPAPIEKTISKTKGQPREPQVCTLPPSRDELTKNQVSLSCAVKGFYPSDIAVEWESNGQPENNYKTTPPVLDSDGSFFLVSKLTVDKSRWQQGNVFSCSVMHEALHNHYTQKSLSLSPGK", "values": [{"measurement": "binding result", "setting": "[9]", "value": "binds"}]}
